Test results published in article PMC10279549 (Blood Advances, 2023).

B1: Protein S (natural protein, UniProt P07225 42-676, looked up)
chain: ANSLLEETKQGNLERECIEELCNKEEAREVFENDPETDYFYPKYLVCLRSFQTGLFTAARQSTNAYPDLRSCVNAIPDQCSPLPCNEDGYMSCKDGKASFTCTCKPGWQGEKCEFDINECKDPSNINGGCSQICDNTPGSYHCSCKNGFVMLSNKKDCKDVDECSLKPSICGTAVCKNIPGDFECECPEGYRYNLKSKSCEDIDECSENMCAQLCVNYPGGYTCYCDGKKGFKLAQDQKSCEVVSVCLPLNLDTKYELLYLAEQFAGVVLYLKFRLPEISRFSAEFDFRTYDSEGVILYAESIDHSAWLLIALRGGKIEVQLKNEHTSKITTGGDVINNGLWNMVSVEELEHSISIKIAKEAVMDINKPGPLFKPENGLLETKVYFAGFPRKVESELIKPINPRLDGCIRSWNLMKQGASGIKEIIQEKQNKHCLVTVEKGSYYPGSGIAQFHIDYNNVSSAEGWHVNVTLNIRPSTGTGVMLALVSGNNTVPFAVSLVDSTSEKSQDILLSVENTVIYRIQALSLCSDQQSHLEFRVNRNNLELSTPLKIETISHEDLQRQLAVLDKAMKAKVATYLGGLPDVPFSATPVNAFYNGCMEVNINGVQLDLDEAISKHNDIRAHSCPSVWKKTKNS

How the values were obtained:
Assay in all cases: SPR
[1] = target: Glu-Gly-Arg-chloromethylketone active site-blocked activated protein C (EGR-APC)
[2] = target: Full-length recombinant factor V W1920R (FV Nara) (human, UniProt P12259 29-2224, W1920R)
[3] = target: Full-length wild-type recombinant factor V (FV-WT) (human, UniProt P12259 29-2224)
[4] = target: Full-length recombinant factor V R506Q (FV Leiden) (human, UniProt P12259 29-2224, R506Q)
Chain of Full-length recombinant factor V R506Q (FV Leiden) (P12259 29-2224 R534Q): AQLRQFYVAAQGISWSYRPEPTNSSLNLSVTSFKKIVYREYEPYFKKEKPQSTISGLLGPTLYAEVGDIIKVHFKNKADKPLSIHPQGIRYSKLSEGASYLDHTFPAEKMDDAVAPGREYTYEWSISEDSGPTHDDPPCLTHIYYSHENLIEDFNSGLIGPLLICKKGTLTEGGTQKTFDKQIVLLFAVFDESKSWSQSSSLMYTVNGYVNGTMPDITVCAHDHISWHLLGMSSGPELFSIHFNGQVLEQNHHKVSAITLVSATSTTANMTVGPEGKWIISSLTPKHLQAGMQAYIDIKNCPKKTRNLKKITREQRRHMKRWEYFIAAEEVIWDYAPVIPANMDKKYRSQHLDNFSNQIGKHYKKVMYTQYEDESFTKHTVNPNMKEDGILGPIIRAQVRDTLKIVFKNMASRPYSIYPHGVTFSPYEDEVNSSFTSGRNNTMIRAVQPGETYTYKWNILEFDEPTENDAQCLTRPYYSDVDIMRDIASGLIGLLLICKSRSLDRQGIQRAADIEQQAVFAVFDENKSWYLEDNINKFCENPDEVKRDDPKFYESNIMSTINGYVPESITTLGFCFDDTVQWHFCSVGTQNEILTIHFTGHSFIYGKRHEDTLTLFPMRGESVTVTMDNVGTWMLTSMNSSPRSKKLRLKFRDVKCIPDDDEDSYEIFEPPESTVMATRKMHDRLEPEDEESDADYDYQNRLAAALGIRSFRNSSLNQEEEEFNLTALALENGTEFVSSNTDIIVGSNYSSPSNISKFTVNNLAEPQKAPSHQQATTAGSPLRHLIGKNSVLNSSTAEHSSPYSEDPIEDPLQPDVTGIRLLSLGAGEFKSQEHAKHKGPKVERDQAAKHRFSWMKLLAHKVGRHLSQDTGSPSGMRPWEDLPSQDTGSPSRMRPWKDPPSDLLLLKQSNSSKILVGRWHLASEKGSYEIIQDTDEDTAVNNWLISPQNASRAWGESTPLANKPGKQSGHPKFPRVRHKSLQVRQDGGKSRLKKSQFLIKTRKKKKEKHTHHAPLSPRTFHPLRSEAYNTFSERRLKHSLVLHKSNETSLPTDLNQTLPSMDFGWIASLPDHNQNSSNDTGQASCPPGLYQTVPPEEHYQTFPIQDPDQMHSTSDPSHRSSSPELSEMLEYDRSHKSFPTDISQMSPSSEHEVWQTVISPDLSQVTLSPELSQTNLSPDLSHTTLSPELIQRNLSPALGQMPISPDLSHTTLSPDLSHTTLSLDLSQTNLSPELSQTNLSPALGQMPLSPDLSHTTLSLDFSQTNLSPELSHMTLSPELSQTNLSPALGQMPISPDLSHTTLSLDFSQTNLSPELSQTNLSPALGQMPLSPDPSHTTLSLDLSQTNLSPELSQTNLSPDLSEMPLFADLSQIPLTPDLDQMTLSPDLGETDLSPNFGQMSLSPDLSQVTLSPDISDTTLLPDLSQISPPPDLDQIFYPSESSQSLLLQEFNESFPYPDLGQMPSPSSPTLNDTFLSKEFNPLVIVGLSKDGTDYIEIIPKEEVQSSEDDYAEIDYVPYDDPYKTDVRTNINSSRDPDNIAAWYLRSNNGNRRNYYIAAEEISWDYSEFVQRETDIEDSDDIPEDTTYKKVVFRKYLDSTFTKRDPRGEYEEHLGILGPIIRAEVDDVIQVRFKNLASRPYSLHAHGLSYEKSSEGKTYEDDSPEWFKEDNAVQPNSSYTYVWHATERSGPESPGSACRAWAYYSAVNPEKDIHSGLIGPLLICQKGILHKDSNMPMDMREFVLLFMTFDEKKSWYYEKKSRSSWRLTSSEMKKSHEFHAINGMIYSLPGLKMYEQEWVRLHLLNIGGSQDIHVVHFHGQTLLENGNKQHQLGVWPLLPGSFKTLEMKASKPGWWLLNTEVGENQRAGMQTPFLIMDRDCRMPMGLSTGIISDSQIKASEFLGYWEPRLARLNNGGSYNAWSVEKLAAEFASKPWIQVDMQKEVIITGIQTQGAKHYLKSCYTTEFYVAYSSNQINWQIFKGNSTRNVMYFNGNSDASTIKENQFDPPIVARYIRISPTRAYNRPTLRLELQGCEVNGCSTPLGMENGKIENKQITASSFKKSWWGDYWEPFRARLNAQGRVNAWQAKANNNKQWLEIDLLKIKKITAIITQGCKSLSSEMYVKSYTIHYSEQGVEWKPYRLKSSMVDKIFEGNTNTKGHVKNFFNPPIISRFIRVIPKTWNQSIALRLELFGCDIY

Chain of Full-length recombinant factor V W1920R (FV Nara) (P12259 29-2224 W1948R): as the sequence (P12259 29-2224 R534Q) above, with Q506R, W1920R counted along it
Chain of Full-length wild-type recombinant factor V (FV-WT) (P12259 29-2224): as the sequence (P12259 29-2224 R534Q) above, with Q506R counted along it

Molecule	Kd [1] [nM]	koff [1] [s⁻¹]	kon [1] [M⁻¹ s⁻¹]	Kd [2] [nM]	koff [2] [s⁻¹]	kon [2] [M⁻¹ s⁻¹]	Kd [3] [nM]	koff [3] [s⁻¹]	kon [3] [M⁻¹ s⁻¹]	Kd [4] [nM]	koff [4] [s⁻¹]	kon [4] [M⁻¹ s⁻¹]
Full-length recombinant factor V A2086D (FV Besançon) (from UniProt P12259 29-2224) (natural protein)	20.3	0.00268	132000	–	–	–	–	–	–	–	–	–
Full-length recombinant factor V R506Q (FV Leiden) (from UniProt P12259 29-2224) (natural protein)	19.1	0.00457	239000	–	–	–	–	–	–	–	–	–
Full-length recombinant factor V W1920R (FV Nara) (from UniProt P12259 29-2224) (natural protein)	12.8	0.00433	338000	–	–	–	–	–	–	–	–	–
Full-length wild-type recombinant factor V (FV-WT) (from UniProt P12259 29-2224) (natural protein)	10.7	0.00359	337000	–	–	–	–	–	–	–	–	–
B1	–	–	–	26.2	0.00382	145000	7.56	0.00393	520000	5.26	0.00374	711000
